# Source: PMC7680125
# Experiments:
# [1] = target: Isw1 (ISW1a catalytic subunit);Ioc3 dcHLB del496-565 (Saccharomyces cerevisiae (BY4742?);Saccharomyces cerevisiae (BY4742)) (UniProt P38144+P43596); experiment: EMSA; settings: 35 mM Na-HEPES pH 7.8, 5 mM MgCl2, 0.1 mM EGTA, 0.02 M EDTA (so in the source), 70 mM NaCl, 0.1 mg/ml BSA, 5-8% glycerol, 40 uM 2-mercaptoethanol, 30 C, 30 min …
# [2] = target: Isw1 (ISW1a catalytic subunit);Ioc3 (Saccharomyces cerevisiae (BY4742?);Saccharomyces cerevisiae (BY4742)) (UniProt P38144+P43596); experiment: EMSA; settings: 35 mM Na-HEPES pH 7.8, 5 mM MgCl2, 0.1 mM EGTA, 0.02 M EDTA (so in the source), 70 mM NaCl, 0.1 mg/ml BSA, 5-8% glycerol, 40 uM 2-mercaptoethanol, 30 C, 30 min …
Substance,Kd [1],Kd [2]
CCGGACGTATATATCTGACACGTGCCTGGCGACTAGGGAGCGATCCCCTTGGCGGTTAAAACGCGGGGGACAGCGCGTACGTGCGTTTAAGCGGTGCTAGAGCTGTCTACGACCAATTGAGCGGCCTCGGCACCGGGAATCTCCAGGGCGGCCGCGTATAGGCTCCGGATCCTCTAGAGTCGACCTCGAAACGGGTACCCCAGGGACTTGAAGTAATAAGGACGGAGGGCCTCTTTCAACATCGATGCACGGTGGTTAGCCTTGGATTGCGCTCTACCGAGCGCTAAGCGTACTTAGAAGCGCGAGCGACGACTTCACACGGTAGGTGGGCGCGCGAACTGGGCAGATCC (double strand) [0(N1)50(N2)6 dinucleosome],34.5 nM,45.9 nM
CACCGGCACGGTCGCTGTTCGATACGTGCGCCGGACGTATATATCTGACACGTGCCTGGCGACTAGGGAGCGATCCCCTTGGCGGTTAAAACGCGGGGGACAGCGCGTACGTGCGTTTAAGCGGTGCTAGAGCTGTCTACGACCAATTGAGCGGCCTCGGCACCGGGAATCTCCAGGGCGGCCGCGTATAGGCTCCGGATCCTCTAGAGTCGACCTCGAAACGGGTACCCCAGGGACTTGAAGTAATAAGGACGGAGGGCCTCTTTCAACATCGATGCACGGTGGTTAGCCTTGGATTGCGCTCTACCGAGCGCTAAGCGTACTTAGAAGCGCGAGCGACGACTTCACACGGTAGGTGGGCGCGCGAACTGGGCAGATCC (double strand) [30(N1)50(N2)6 dinucleosome],28 nM,10.2 nM
0N70 mononucleosome,32.5 nM,30.3 nM
TCGGAACGCTATCCGACTGGCACCGGCACGGTCGCTGTTCGATACGTGCGCCGGACGTATATATCTGACACGTGCCTGGCGACTAGGGAGCGATCCCCTTGGCGGTTAAAACGCGGGGGACAGCGCGTACGTGCGTTTAAGCGGTGCTAGAGCTGTCTACGACCAATTGAGCGGCCTCGGCACCGGGAATCTCCAGGGCGGCCGCGTATAGGCTCCGGATCCTCTAGAGTCGACCTCGAAACGGGTACCCCAGGGACTTGAAGTAATAAGGACGGAGGGCCTCTTTCAACATCGATGCACGGTGGTTAGCCTTGGATTGCGCTCTACCGAGCGCTAAGCGTACTTAGAAGCGCGAGCGACGACTTCACACGGTAGGTGGGCGCGCGAACTGGGCAGATCC (double strand) [50(N1)50(N2)6 dinucleosome],12.5 nM,5.29 nM
